This is an account of results in the supplement of paper PMC10126150.

For this data set, the system named is ATP. Nature of the data set: switch fluorescence ratio, 500 uM ATP over buffer (Cy3 cluster intensity, sum of 5 cycles each) (fold (ratio)); higher = stronger signal-on switching upon ATP binding; sequences stand for … in TCGTCGGCAGCGTCAGATGTGTATAAGAGACAGTTTTTTTTTTTTTTTTTTTTTTTTT…TC. Conditions: aptamer strand: ATP DNA aptamer (quencher-CACCTGGGGGAGTATTGCGGAGGAAGG + anchor), 100 nM annealed; ATP concentration: 500 uM. A digest of the protocol:
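After annealing to 100 nM quencher-labelled ATP aptamer, Cy3-labelled switching-strand clusters on a modified Illumina MiSeq flow-cell were imaged in selection buffer. A second image followed after 15 min with 500 uM ATP at 22 °C, and five such buffer/ATP cycles were done, each separated by NaOH stripping and re-annealing. The fluorescence ratio, averaged per switch-domain sequence, is summed target-cycle over summed buffer-cycle Cy3 intensity per cluster, with clusters outside 100-1000 RFU excluded.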

± gives the standard deviation of the averaged measurements.
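Note: ATP exposure 15 min at 22 °C before imaging.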

TTTGATGGGA: the switch fluorescence ratio was found to be 1.025 ± 0.0068.
For TTTGATGGTA, the switch fluorescence ratio was 0.943 ± 0.026.
For TTTGATTCAC, the switch fluorescence ratio stood at 1.02 ± 0.041.
In the case of TTTGATTGAA, the switch fluorescence ratio is 0.975 ± 0.03.
For TTTGATTGGT, the switch fluorescence ratio was determined as 0.99 ± 0.038.
In the case of TTTGATTTAC, the switch fluorescence ratio was 1 ± 0.028.
On to TTTGATTTCG, for which the switch fluorescence ratio is 1.01 ± 0.024.
As to TTTGCAAAGG, the switch fluorescence ratio was determined as 1.007 ± 0.0022.
Take TTTGCACAGT: the switch fluorescence ratio is 1.01 ± 0.021.
The value for TTTGCACATT was 1.02 ± 0.069.
With TTTGCACGTA, the switch fluorescence ratio was 0.991 ± 0.084.
The value for TTTGCAGAAA was 0.996 ± 0.018; that for TTTGCAGAAT was 1.006 ± 0.0094; that for TTTGCAGACA was 1.01 ± 0.027.
In the case of TTTGCAGGGG, the switch fluorescence ratio came to 1.06 ± 0.1.
Take TTTGCAGTTT: the switch fluorescence ratio turned out to be 0.997 ± 0.024.
For TTTGCATGCT, the switch fluorescence ratio is 1.024 ± 0.0036.
As to TTTGCATTAG, the switch fluorescence ratio amounted to 1.11 ± 0.028.
On to TTTGCATTCA, for which the switch fluorescence ratio was found to be 0.999 ± 0.038.
Consider TTTGCCAGAC, for which the switch fluorescence ratio is 1.23 ± 0.24.
Consider TTTGCCCTTT, for which the switch fluorescence ratio amounted to 1.24 ± 0.32.
For TTTGCCGCGT, the switch fluorescence ratio came out at 1.03 ± 0.012.
On to TTTGCCTGAC, for which the switch fluorescence ratio was found to be 1.57 ± 0.37.
As for TTTGCGAGAG, the switch fluorescence ratio is 1.01 ± 0.045.
With TTTGCGATTT, the switch fluorescence ratio was found to be 1.15 ± 0.14.
As for TTTGCGGCGT, the switch fluorescence ratio worked out at 0.986 ± 0.022.
Turning to TTTGCGGTTT, the switch fluorescence ratio is 1.02 ± 0.046.
The value for TTTGCGTTGT was 1.022 ± 0.0061; that for TTTGCTCAGG was 1.09 ± 0.037; that for TTTGCTGGAT was 1.08 ± 0.046.
As for TTTGCTTTCC, the switch fluorescence ratio was 1.2 ± 0.17.
As to TTTGCTTTGT, the switch fluorescence ratio was determined as 1.01 ± 0.023.
Regarding TTTGGAACAT, the switch fluorescence ratio was 1.01 ± 0.042.
For the sequence TTTGGAATTG, the switch fluorescence ratio stood at 0.988 ± 0.016.
Take TTTGGAATTT: the switch fluorescence ratio was 1.06 ± 0.1.
With TTTGGACAAG, the switch fluorescence ratio worked out at 1 ± 0.061.
As for TTTGGACTGG, the switch fluorescence ratio amounted to 1.01 ± 0.067.
As to TTTGGACTGT, the switch fluorescence ratio amounted to 0.988 ± 0.019.
The value for TTTGGAGACT was 1.03 ± 0.02; that for TTTGGATGTG was 0.984 ± 0.032.
The value for TTTGGCACGC was 1.11 ± 0.04.
On to TTTGGCAGGT, for which the switch fluorescence ratio is 1.03 ± 0.026.
Turning to TTTGGCATTA, the switch fluorescence ratio was 1.09 ± 0.1.
For the sequence TTTGGCCCCG, the switch fluorescence ratio worked out at 0.9612 ± 0.0093.
With TTTGGCTCTG, the switch fluorescence ratio was 1.03 ± 0.025.
With TTTGGCTTGT the figure was 0.9714 ± 0.0068; with TTTGGGAA, 1.03 ± 0.015; with TTTGGGAAAT, 1.07 ± 0.1.
As for TTTGGGAAGC, the switch fluorescence ratio was determined as 1.02 ± 0.033.
With TTTGGGAGCA the figure was 0.9882 ± 0.0022.
With TTTGGGAGGT the figure was 0.99 ± 0.063; with TTTGGGCAAG, 1.06 ± 0.043; with TTTGGGCACT, 0.996 ± 0.024.
On to TTTGGGCCGA, for which the switch fluorescence ratio turned out to be 0.987 ± 0.028.
With TTTGGGCCTC, the switch fluorescence ratio turned out to be 0.9842 ± 0.0021.
TTTGGGCCTT: the switch fluorescence ratio turned out to be 1.02 ± 0.034.
For TTTGGGCGAA, the switch fluorescence ratio came out at 1.002 ± 0.0068.
As for TTTGGGCTTG, the switch fluorescence ratio amounted to 1.013 ± 0.0054.
Consider TTTGGGGAAA, for which the switch fluorescence ratio was found to be 1.16 ± 0.42.
As to TTTGGGGACA, the switch fluorescence ratio was found to be 1.01 ± 0.019.
For the sequence TTTGGGGGTT, the switch fluorescence ratio was determined as 1.01 ± 0.039.
The value for TTTGGGTAAT was 1.21 ± 0.39.
In the case of TTTGGGTGAG, the switch fluorescence ratio was determined as 0.993 ± 0.023.
In the case of TTTGGGTGAT, the switch fluorescence ratio stood at 1.02 ± 0.022.
With TTTGGGTTTT, the switch fluorescence ratio was 1.01 ± 0.054.
With TTTGGTAAAA, the switch fluorescence ratio is 1.01 ± 0.037.
For TTTGGTAAGC, the switch fluorescence ratio amounted to 1.02 ± 0.036.
Consider TTTGGTACCC, for which the switch fluorescence ratio was determined as 1.01 ± 0.029.
For the sequence TTTGGTCAGA, the switch fluorescence ratio was 0.973 ± 0.049.
Regarding TTTGGTCGGA, the switch fluorescence ratio was 1.019 ± 0.0039.
As to TTTGGTCGGT, the switch fluorescence ratio is 0.986 ± 0.081.
TTTGGTCTTT: the switch fluorescence ratio came to 1 ± 0.02.
As for TTTGGTGATA, the switch fluorescence ratio was found to be 0.943 ± 0.01.
For TTTGGTGGGG, the switch fluorescence ratio turned out to be 1.01 ± 0.029.
TTTGGTGTGC: the switch fluorescence ratio stood at 1.01 ± 0.022.
With TTTGGTGTTA the figure was 1 ± 0.026.
With TTTGGTTAGC the figure was 1.01 ± 0.02.
As to TTTGGTTAGG, the switch fluorescence ratio was determined as 0.985 ± 0.019.
TTTGGTTATT: the switch fluorescence ratio stood at 1 ± 0.04.
For the sequence TTTGGTTGCT, the switch fluorescence ratio is 0.991 ± 0.028.
Turning to TTTGGTTTAG, the switch fluorescence ratio came out at 1 ± 0.015.
As to TTTGGTTTTA, the switch fluorescence ratio amounted to 1.004 ± 0.0077.
The value for TTTGTAAAGT was 0.976 ± 0.019; that for TTTGTAAGGC was 1.08 ± 0.13; that for TTTGTAGGCG was 0.983 ± 0.13.
Consider TTTGTATAAC, for which the switch fluorescence ratio amounted to 1.01 ± 0.012.
The value for TTTGTATTCC was 0.991 ± 0.1; that for TTTGTCAAAA was 1 ± 0.025; that for TTTGTCAGTT was 0.956 ± 0.043.
With TTTGTCATGT the figure was 0.976 ± 0.036; with TTTGTCCGGT, 0.971 ± 0.018.
In the case of TTTGTGCAGG, the switch fluorescence ratio came out at 1.04 ± 0.046.
Turning to TTTGTGCCGG, the switch fluorescence ratio stood at 1.012 ± 0.007.
With TTTGTGGAGC, the switch fluorescence ratio was 1.04 ± 0.071.
As to TTTGTGGAGG, the switch fluorescence ratio came out at 0.999 ± 0.023.
With TTTGTGGGAC the figure was 1.11 ± 0.066; with TTTGTGGGGA, 1 ± 0.026.
On to TTTGTGGGTT, for which the switch fluorescence ratio is 0.997 ± 0.025.
The value for TTTGTGTAGT was 0.986 ± 0.065.
The value for TTTGTGTCAC was 0.984 ± 0.034; that for TTTGTGTCTT was 0.967 ± 0.024; that for TTTGTGTGGC was 0.99 ± 0.084.
For TTTGTTAAGG, the switch fluorescence ratio stood at 1.01 ± 0.019.
For the sequence TTTGTTAAGT, the switch fluorescence ratio was determined as 1.01 ± 0.05.
Turning to TTTGTTAATT, the switch fluorescence ratio stood at 0.996 ± 0.039.
With TTTGTTAGC the figure was 1.03 ± 0.019.
As to TTTGTTATGC, the switch fluorescence ratio was 1.03 ± 0.032.
Consider TTTGTTGAC, for which the switch fluorescence ratio worked out at 0.998 ± 0.024.
On to TTTGTTGGAA, for which the switch fluorescence ratio came out at 0.99 ± 0.025.
Regarding TTTGTTGGCT, the switch fluorescence ratio was found to be 0.972 ± 0.058.
With TTTGTTGGGG the figure was 1.02 ± 0.011.
As for TTTGTTGTAT, the switch fluorescence ratio came to 1 ± 0.032.
With TTTGTTGTTA, the switch fluorescence ratio was 0.994 ± 0.031.
The value for TTTGTTTACT was 0.99165 ± 0.00046; that for TTTGTTTCAA was 0.982 ± 0.013; that for TTTGTTTCAT was 1.04 ± 0.1.
TTTGTTTCGT: the switch fluorescence ratio came out at 1.03 ± 0.11.
With TTTGTTTGGG, the switch fluorescence ratio was 0.998 ± 0.033.
In the case of TTTGTTTTCG, the switch fluorescence ratio is 1.02 ± 0.041.
TTTGTTTTGC: the switch fluorescence ratio was determined as 0.971 ± 0.019.
